Experimental data from PMC6336354, “A transient helix in the disordered region of dynein light intermediate chain links the motor to structurally diverse adaptors for cargo transport” (PLoS Biology, 2019).

T1: HOOK3(2–552)::Strep-tag II (human, UniProt Q86VS8 2-552)
T1 construct: human Hook homolog 3 (HOOK3), residues 2-552; used for the GST pull-downs; also called Hook homolog 3; source: E. coli Rosetta, purified (Ni-NTA, TEV cleavage, Strep-Tactin; dialysis or SEC); not shown: 6xHis::MBP, N-terminal, cleaved; Strep-tag II (after linker GSGSGR), C-terminal, kept
T1 sequence (looked up): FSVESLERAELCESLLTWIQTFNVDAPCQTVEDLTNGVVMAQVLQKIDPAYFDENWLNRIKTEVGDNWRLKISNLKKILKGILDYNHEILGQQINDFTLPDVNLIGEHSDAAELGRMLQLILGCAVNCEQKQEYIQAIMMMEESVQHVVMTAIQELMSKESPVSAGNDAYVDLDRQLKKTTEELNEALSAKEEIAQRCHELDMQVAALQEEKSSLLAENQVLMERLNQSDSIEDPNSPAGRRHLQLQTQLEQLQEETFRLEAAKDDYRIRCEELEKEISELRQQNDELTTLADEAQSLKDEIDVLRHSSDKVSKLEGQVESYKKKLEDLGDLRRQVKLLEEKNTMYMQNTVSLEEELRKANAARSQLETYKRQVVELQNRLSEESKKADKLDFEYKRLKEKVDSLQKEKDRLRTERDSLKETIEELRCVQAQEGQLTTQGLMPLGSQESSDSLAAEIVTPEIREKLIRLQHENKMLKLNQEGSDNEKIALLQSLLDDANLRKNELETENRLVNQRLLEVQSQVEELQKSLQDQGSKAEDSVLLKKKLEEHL

T2: RILP(1–401)::Strep-tag II (human, UniProt Q96NA2 1-401)
T2 construct: also called RILP::Strep-tag II; source: Sf21 insect cells (baculovirus), purified (Strep-Tactin Sepharose); not shown: Strep-tag II (after linker GSGSGR), C-terminal, kept
T2 sequence (looked up): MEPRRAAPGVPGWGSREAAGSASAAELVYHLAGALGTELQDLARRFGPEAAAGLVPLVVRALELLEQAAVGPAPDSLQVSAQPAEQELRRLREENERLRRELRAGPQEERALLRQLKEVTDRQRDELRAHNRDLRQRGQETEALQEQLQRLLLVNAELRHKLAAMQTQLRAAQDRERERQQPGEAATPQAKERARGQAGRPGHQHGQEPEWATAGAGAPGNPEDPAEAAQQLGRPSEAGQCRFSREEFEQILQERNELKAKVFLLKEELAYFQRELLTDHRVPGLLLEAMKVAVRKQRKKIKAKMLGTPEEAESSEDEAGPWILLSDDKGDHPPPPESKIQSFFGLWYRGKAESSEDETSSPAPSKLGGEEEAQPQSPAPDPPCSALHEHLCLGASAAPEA

T3: NIN(1–693)::Strep-tag II (human, UniProt Q8N4C6 1-693)
T3 construct: human ninein (NIN), N-terminal fragment, residues 1-693 of 2,090; also called ninein; source: E. coli Rosetta, purified (Ni-NTA, TEV cleavage, Strep-Tactin; dialysis or SEC); not shown: 6xHis::MBP, N-terminal, cleaved; Strep-tag II (after linker GSGSGR), C-terminal, kept
T3 sequence (looked up): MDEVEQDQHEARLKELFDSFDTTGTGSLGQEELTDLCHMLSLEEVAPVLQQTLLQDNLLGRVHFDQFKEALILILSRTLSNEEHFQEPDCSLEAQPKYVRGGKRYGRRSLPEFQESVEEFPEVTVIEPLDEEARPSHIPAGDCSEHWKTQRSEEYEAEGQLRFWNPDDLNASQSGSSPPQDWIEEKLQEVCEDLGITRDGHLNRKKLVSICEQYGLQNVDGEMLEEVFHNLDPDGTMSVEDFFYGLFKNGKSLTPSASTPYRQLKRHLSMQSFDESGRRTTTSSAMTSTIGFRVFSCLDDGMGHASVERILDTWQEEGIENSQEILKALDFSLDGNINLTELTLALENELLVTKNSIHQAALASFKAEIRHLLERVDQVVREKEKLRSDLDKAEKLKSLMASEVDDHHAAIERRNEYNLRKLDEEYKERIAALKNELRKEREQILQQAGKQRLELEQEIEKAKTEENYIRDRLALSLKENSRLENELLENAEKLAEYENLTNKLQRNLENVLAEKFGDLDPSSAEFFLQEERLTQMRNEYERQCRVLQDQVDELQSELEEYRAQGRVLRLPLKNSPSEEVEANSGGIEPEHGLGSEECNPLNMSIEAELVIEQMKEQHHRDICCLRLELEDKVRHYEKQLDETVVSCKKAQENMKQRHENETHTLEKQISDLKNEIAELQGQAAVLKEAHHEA

B1: GST::LIC2(375–492)::6xHis (domain or fragment, human)
chain: WATPTRASESPARGPSGSPRTQGRGGPASVPSSSPGTSVKKPDPNIKNNAASEGVLASFFNSLLSKKTGSPGSPGAGGVQSTAKKSGQKTVLSNVQEELDRMTRKPDSMVTNSSTENEA
notes: single N-terminal tryptophan added in the construct; also called LIC2-C; source: E. coli BL21, purified (glutathione agarose, Ni-NTA; dialysis or SEC); not shown: GST, N-terminal, kept; 6xHis (after linker GSGSG), C-terminal, kept
B2: GST::LIC2(375–450)::6xHis (domain or fragment, human)
chain: WATPTRASESPARGPSGSPRTQGRGGPASVPSSSPGTSVKKPDPNIKNNAASEGVLASFFNSLLSKKTGSPGSPGAG
notes: single N-terminal tryptophan added in the construct; source: E. coli BL21, purified (glutathione agarose, Ni-NTA; dialysis or SEC); not shown: GST, N-terminal, kept; 6xHis (after linker GSGSG), C-terminal, kept
B3: GST::LIC1(402–471)::6xHis (domain or fragment, human)
chain: WPGGSPRTPNRSVSSNVASVSPIPAGSKKIDPNMKAGATSEGVLANFFNSLLSKKTGSPGGPGVSGGSPAG
notes: single N-terminal tryptophan added in the construct; human dynein light intermediate chain 1 (DYNC1LI1), residues 402-471; source: E. coli BL21, purified (glutathione agarose, Ni-NTA; dialysis or SEC); not shown: GST, N-terminal, kept; 6xHis (after linker GSGSG), C-terminal, kept
B4: GST::LIC1(414–471)::6xHis (domain or fragment, human)
chain: WSSNVASVSPIPAGSKKIDPNMKAGATSEGVLANFFNSLLSKKTGSPGGPGVSGGSPAG
notes: single N-terminal tryptophan added in the construct; human dynein light intermediate chain 1 (DYNC1LI1), residues 414-471; source: E. coli BL21, purified (glutathione agarose, Ni-NTA; dialysis or SEC); not shown: GST, N-terminal, kept; 6xHis (after linker GSGSG), C-terminal, kept

Each binder was assayed against T1, HOOK3(2–552)::Strep-tag II (assay: pull-down; GST::LIC::6xHis (50 pmol) with 50 or 250 pmol adaptor and glutathione agarose, 1 h at 4°C, 150 μL of 50 mM HEPES, 100 mM NaCl, 5 mM DTT, pH 7.5, 0.1% Tween 20; Coomassie staining and immunoblot against Strep-tag II). Settings: both partners purified.

Binder | binding result
B1 | binds
B2 | binds
B3 | binds
B4 | binds

The binders below were run against T2, RILP(1–401)::Strep-tag II in the same assay as above. Settings: both partners purified.

Binder | binding result
B1 | binds
B2 | binds
B3 | binds
B4 | binds

These binders were tested against T3, NIN(1–693)::Strep-tag II in the same assay as above. Settings: both partners purified.

Binder | binding result
B1 | binds
B2 | binds
B3 | binds
B4 | binds
